Results from paper PMC4506780.

Substrate: c1ccc2c3c([nH]c2c1)CNCC3
Test: steady-state kinetics of chlorination
Type: biochemical, Lentzea aerocolonigenes
Conditions: cofactor regeneration as in Scheme 2

B1: RebH (Lentzea aerocolonigenes; K145M/M71V/S2P) (protein)
chain: MPGKIDKILIVGGGTAGWMAASYLGKALQGTADITLLQAPDIPTLGVGEATIPNLQTAFFDFLGIPEDEWVRECNASYKVAIKFINWRTAGEGTSEARELDGGPDHFYHSFGLLKYHEQIPLSHYWFDRSYRGKTVEPFDYACYMEPVILDANRSPRRLDGSKVTNYAWHFDAHLVADFLRRFATEKLGVRHVEDRVEHVQRDANGNIESVRTATGRVFDADLFVDCSGFRGLLINKAMEEPFLDMSDHLLNDSAVATQVPHDDDANGVEPFTSAIAMKSGWTWKIPMLGRFGTGYVYSSRFATEDEAVREFCEMWHLDPETQPLNRIRFRVGRNRRAWVGNCVSIGTSSCFVEPLESTGIYFVYAALYQLVKHFPDKSLNPVLTARFNREIETMFDDTRDFIQAHFYFSPRTDTPFWRANKELRLADGMQEKIDMYRAGMAINAPASDDAQLYYGNFEEEFRNFWNNSNYYCVLAGLGLVPDAPSPRLAHMPQATESVDEVFGAVKDRQRNLLETLPSLHEFLRQQHGR
Work on B1 yielded a Km (variant 1-PVM, 5 mol% enzyme) of 215 µM, a kcat (variant 1-PVM, 5 mol% enzyme) of 0.000667 s⁻¹ and a kcat/Km (variant 1-PVM, 5 mol% enzyme) of 3.1 M⁻¹ s⁻¹.

B2: RebH (Lentzea aerocolonigenes; K145M/M71V/N467T/S2P) (protein)
chain: MPGKIDKILIVGGGTAGWMAASYLGKALQGTADITLLQAPDIPTLGVGEATIPNLQTAFFDFLGIPEDEWVRECNASYKVAIKFINWRTAGEGTSEARELDGGPDHFYHSFGLLKYHEQIPLSHYWFDRSYRGKTVEPFDYACYMEPVILDANRSPRRLDGSKVTNYAWHFDAHLVADFLRRFATEKLGVRHVEDRVEHVQRDANGNIESVRTATGRVFDADLFVDCSGFRGLLINKAMEEPFLDMSDHLLNDSAVATQVPHDDDANGVEPFTSAIAMKSGWTWKIPMLGRFGTGYVYSSRFATEDEAVREFCEMWHLDPETQPLNRIRFRVGRNRRAWVGNCVSIGTSSCFVEPLESTGIYFVYAALYQLVKHFPDKSLNPVLTARFNREIETMFDDTRDFIQAHFYFSPRTDTPFWRANKELRLADGMQEKIDMYRAGMAINAPASDDAQLYYGNFEEEFRNFWTNSNYYCVLAGLGLVPDAPSPRLAHMPQATESVDEVFGAVKDRQRNLLETLPSLHEFLRQQHGR
B2 was tested, and the Km (variant 2-T, 3 mol% enzyme) was 236 µM, the kcat (variant 2-T, 3 mol% enzyme) was 0.000933 s⁻¹ and the kcat/Km (variant 2-T, 3 mol% enzyme) was 3.95 M⁻¹ s⁻¹.
